Experimental data from paper PMC10914600, “Synthesis of lipid-linked precursors of the bacterial cell wall is governed by a feedback control mechanism in Pseudomonas aeruginosa” (Nature Microbiology, 2024).

Target: the molecule itself
Assay: cryo-EM structure; YES(T23P) complex (EcMraY(T23P), protein E, SlyD) co-expressed and purified in DDM; 5 mg/ml in 10 mM HEPES pH 7.5, 75 mM NaCl, 2% glycerol, 5 mM βME, 0.03% DDM, 1 mM E. coli total lipid extract; focused refinement of MraY alone after particle subtraction, final map 3.8 Å

B1: E. coli MraY(T23P) (enzyme)
chain: MLVWLAEHLVKYYSGFNVFSYLPFRAIVSLLTALFISLWMGPRMIAHLQKLSFGQVVRNDGPESHFSKRGTPTMGGIMILTAIVISVLLWAYPSNPYVWCVLVVLVGYGVIGFVDDYRKVVRKDTKGLIARWKYFWMSVIALGVAFALYLAGKDTPATQLVVPFFKDVMPQLGLFYILLAYFVIVGTGNAVNLTDGLDGLAIMPTVFVAGGFALVAWATGNMNFASYLHIPYLRHAGELVIVCTAIVGAGLGFLWFNTYPAQVFMGDVGSLALGGALGIIAVLLRQEFLLVIMGGVFVVETLSVILQVGSFKLRGQRIFRMAPIHHHYELKGWPEPRVIVRFWIISLMLVLIGLATLKVR
notes: MraY of E. coli, integral membrane enzyme that forms lipid I; The methods name the plasmid pRSFDuetEcMraY-E_(ID21) without the T23P change; also called ^EcMraY(T23P); MraY of the YES(T23P) complex; source: E. coli ∆slyD BL21(DE3), co-expressed with protein E and SlyD, purified as the YES complex (DDM, NiNTA, SEC)
In the case of B1, the “stoichiometry N” value is reported as 2.
